Assay results as given in patent US20170008959A1 (AbbVie / Abbott, published 2017).
No end group written: not given here.

T1: AP-Nogo66 (Nogo-66 with an N-terminal alkaline phosphatase tag) (human, UniProt Q9NQC3 1055-1120)
T1 construct: range 1055-1120; Migrates as a dimer of about 140 kDa in gel chromatography; the AP tag induces the dimerization; also called NgR ligand AP-Nogo-66; not shown: alkaline phosphatase tag encoded by vector pAP-tag5
T1 sequence (looked up): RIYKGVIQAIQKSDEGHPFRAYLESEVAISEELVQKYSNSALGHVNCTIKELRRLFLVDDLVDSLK

B1: sRAGE 1-331 (recombinant human sRAGE protein) (receptor)
chain: AQNITARIGEPLVLKCKGAPKKPPQRLEWKLNTGRTEAWKVLSPQGGGPWDSVARVLPNGSLFLPAVGIQDEGIFRCQAMNRNGKETKSNYRVRVYQIPGKPEIVDSASELTAGVPNKVGTCVSEGSYPAGTLSWHLDGKPLVPNEKGVSVKEQTRRHPETGLFTLQSELMVTPARGGDPRPTFSCSFSPGLPRHRALRTAPIQPRVWEPVPLEEVQLVVEPEGGAVAPGGTVTLTCEVPAQPSPQIHWMKDGVPLPLPPSPVLILPEIGPQDQGTYSCVATHSSHGPQESRAVSISIIEPGEEGPTAGGTKLGPEQKLISEEDLNSAVDHHHHHH
notes: His-tagged, from HEK 293 line 293/6.1 sRAGE His 6 (vector pcDNA3.1(-) Myc HIS); also called sRAGE-HIS
B2: AlterCharge1 (peptide)
peptide: FSRIRATHWRVDG
modifications: also: biotinylated, position not given here
notes: Control 13mer with four positive charges
B3: N-terminally truncated sRAGE (sRAGE 102-331) (receptor)
chain: MNRNGKETKSNYRVRVYQIPGKPEIVDSASELTAGVPNKVGTCVSEGSYPAGTLSWHLDGKPLVPNEKGVSVKEQTRRHPETGLFTLQSELMVTPARGGDPRPTFSCSFSPGLPRHRALRTAPIQPRVWEPVPLEEVQLVVEPEGGAVAPGGTVTLTCEVPAQPSPQIHWMKDGVPLPLPPSPVLILPEIGPQDQGTYSCVATHSSHGPQESRAVSISIIEPGEEGPTAGARGGPEQKLISEEDLNSAVDHHHHHH
notes: His-tagged, expressed from psecTAG 2A; no longer has a functional V domain
B4: His-NogoR fusion protein (receptor, human, UniProt Q9BZR6 27-447, looked up)
chain: CPGACVCYNEPKVTTSCPQQGLQAVPVGIPAASQRIFLHGNRISHVPAASFRACRNLTILWLHSNVLARIDAAAFTGLALLEQLDLSDNAQLRSVDPATFHGLGRLHTLHLDRCGLQELGPGLFRGLAALQYLYLQDNALQALPDDTFRDLGNLTHLFLHGNRISSVPERAFRGLHSLDRLLLHQNRVAHVHPHAFRDLGRLMTLYLFANNLSALPTEALAPLRALQYLRLNDNPWVCDCRARPLWAWLQKFRGSSSEVPCSLPQRLAGRDLKRLAANDLQGCAVATGPYHPIWTGRATDEEPLGLPKCCQPDAADKASVLEPGRPASAGNALKGRVPPGDSPPGNGSGPRHINDSPFGTLPGSAEPPLTAVRPEGSEPPGFPTSGPRRRPGCSRKNRTRSHCRLGQAGSGGGGTGDSEGS
notes: Low-glycosylated fraction of about 80 kDa from CHO-K1 cells; also called soluble His-NogoR; NgR-HIS; not shown: Myc/His tag of vector pcDNA4/MycHIS A

Assays:
[1] = molecular target: T2, Amyloid Aβ-1-42 oligomer (globulomer), biotinylated (UniProt P05067 672-713, biotinylated (1/5 biotin; position not stated)); assay: HTRF direct binding: Aβ 1/5 biotin globulomer titrated on His-tagged sRAGE; anti-6HIS cryptate and streptavidin XL-665
T2 construct: domain: Aβ 1-42; Concentrations are based on Aβ 1-42 monomers; also called Aβ oligomer; Aβ 1-42 oligomers

[2] = molecular target: T2, Amyloid Aβ-1-42 oligomer (globulomer), …; assay: HTRF competition: peptide preincubated with Aβ 1/5 biotin globulomer 800 nM, then sRAGE 1-331 added; blocked partner sRAGE
Experimental: After addition of 4 μl of a 2M KF stock solution, the complete mixture was measured in a BMG Pherastar fluorescence measuring instrument (BMG Labtech GmbH, Offenburg, Germany) in HTRF mode. Separate measurements without peptide were carried out for the max-signal curve. For the background curve, measurements were used with in each case only the AntiGHIS cryptates and strepavidin XL solutions. The calculated % DeltaF values were transferred into GraphPad Prism 4 (GraphPad Software, San Diego, USA) and evaluated. The concentrations indicated in the graphs are based on the final concentration of the complete 20 μl mixture.

[3] = molecular target: T3, sRAGE-6×HIS (AA 23-352, NP_001127) (human, UniProt Q15109 23-331); assay: AlphaScreen, biotinylated peptide and sRAGE-6×HIS
T3 construct: range 23-352; Printed as a fusion protein with limits 23-352 on NP_001127; also called human sRAGE-6×HIS; RAGE receptor; not shown: 6×HIS tag
Experimental: The entire homogeneous assay was carried out in 25 mM HEPES, 100 mM NaCl of pH 7.4 and 0.1% BSA in a volume of 20 μl.
(§1) The individual components were brought together in a defined time sequence. […] The various amounts of peptide were then added in order, after a further 30 minutes, to add the donor beads. After a further 60 minutes, the fluorescence was measured in the AlphaQuest instrument from Perkin-Elmer with a time lag of one second. Each measured point was determined as triplicate. The analysis and graphical workup of the results took place with the GraphPrism 4.0 software package.

[4] = molecular target: T3, sRAGE-6×HIS (AA 23-352, NP_001127); assay: AlphaScreen, biotinylated peptide on streptavidin donor beads, sRAGE-6×HIS 2.5 ng/µl on anti-HIS acceptor beads
Experimental: The assay was carried out by the manufacturer's protocol in 25 mM HEPES, 100 mM NaCl of pH 7.4 and 0.1% BSA in a volume of 20 μl.
as §1, with “evaluation” for “analysis”

[5] = molecular target: T1, AP-Nogo66 (Nogo-66 with an N-terminal …); assay: competition of AP-Nogo66 (0.1 nM) binding to coated His-NogoR
Experimental: (§2) This was followed by a blocking step for 1 hour with 2% strength bovine serum albumin (BSA) in Tris-HCl, pH 7.2, at room temperature. […] These stock solutions were then diluted three-fold.
(§3) After each incubation step, the plates were washed with washing buffer (10 mM Tris-HCl, pH 7.2 and 0.05% Tween20).

His-NogoR fusion protein = molecular target: B4; assay: as above
Experimental: as §2, §3

B1: binds [1].

TLQSELMVTPARGGDPRPTFSCSFSPGLPR (Synthetic 30mer) [AGER-CDP peptide 6]: binds [2].

In the case of CKGAPKKPPQRLE (also: biotinylated, position not given here (AlphaScreen assays only), also called Nterm 13) [NtermR13], the EC50 [3] is reported as 0.066 µM.

With B2 the “EC50 (read off the curve)” value [4] was ~0.05 µM.

In the case of LPRHRALRTAPIQPRVWEPVPLEEVQLVVE (Synthetic 30mer) [AGER-CDP peptide 7], the “IC50 (read off the curve)” value [2] is reported as ~4 µM.

B3: binds [1].

For B4, the IC50 [5] was 0.002 µM.

QNITARIGEPLVLKCKGAPKKPPQRLEWKLN (also: biotin label in some assays, position not given here, also called Nterm 31; Nterm31) [NtermR31] showed an IC50 (His-NogoR fusion protein) of 0.05 µM.
